Experimental data taken from US20110143963A1 (UNIVERSITY OF CHICAGO, published 2011).
Where no end group is shown, it is not given here.

What was measured:
[1] = target: T1, SUMO-ARVCF fusion protein (yeast); assay: SPR, equilibrium mode, target peptide fused to yeast SUMO
T1 construct: also called target peptide fused to the yeast SUMO protein; the target

[2] = target: T1, SUMO-ARVCF fusion protein; assay: SPR, ratio of Kd
[3] = target: T2, target motif GGRSWFETWV-COOH; assay: phage display format and SPR
T2 construct: also called target peptide
T2 peptide: GGRSWFETWV-OH
Description: From visual inspection of the erbin PDZ structure and a sequence alignment of PDZ domains, three potential sites were identified for the new termini in a circularly permutated PDZ domain. Three mutant PDZ domains, in which four Gly residues were inserted in one of the three candidate sites, were assayed for binding to the target motif using the phage display format.

[4] = target: T3, ARVCF peptide PQPVDSWV-COOH (eight-residue motif corresponding to the ARVCF C-terminus) (not fully specified; printed as PQPVDSWV-COOH); assay: SPR (BIAcore)
T3 construct: also called ARVCF target peptide; AVFCF peptide
T3 peptide: PQPVDSWV-OH

[5] = target: T3, ARVCF peptide PQPVDSWV-COOH …; assay: SPR (error 13500 stands in r16c7)
[6] = target: T3, ARVCF peptide PQPVDSWV-COOH …; assay: SPR, ratio of Kd

B1: peptide-PDZ affinity clamp, clone 282-6 (designed binder)
chain: GSNFCASNGTGNDCRRPELGFSISGGVGGRGNPFRPDDDGIFVTRVQPEGPASKLLQPGDKIIQANGYSFINIEHGQAVSLLKTFQNTVELIIVREVGNGAKQEIRVRVEKDGG
modifications: disulfide-constrained (Cys-constrained) peptide segment
Kd [1]: 0.91 µM | fold higher affinity than the parent interaction domain (cpPDZ) [2]: 12 fold

B2: circularly permutated PDZ domain (designed binder)
chain: PELGFSISGGVGGRGNPFRPDDDGIFVTRVQPEGPASKLLQPGDKIIQANGYSFINIEHGQAVSLLKTFQNTVELIIVREVGNGAKQEIRVRVEKD
notes: The order would be PDZ residues 21 to C-terminus, Asn-Gly, then residues 1-20; also called cpPDZ
binding result [3]: binds

B3: fusion protein of cpPDZ and FN3 (starting material) (designed binder)
chain: PELGFSISGGVGGRGNPFRPDDDGIFVTRVQPEGPASKLLQPGDKIIQANGYSFINIEHGQAVSLLKTFQNTVELIIVREVGNGAKQEIRVRVEKDGGSGGVSSVPTNLEVVAATPTSLLISWDASSSSVSYYRITYGETGGNSPVQEFTVPGSKSTATISGLKPGVDYTITVYASSSSSSSSSSPISINYRT
Kd [4]: 25 µM | Kd [5]: 24.8 µM | Affinity Enhancement (Kd of cpPDZFN for ARVCF / Kd of the clamp) [6]: 1 fold
